The target of assay [1] is T1, Recombinant Human IL-13 (human, UniProt P35225 35-146, limits assumed).
T1 construct: bought reagent
The experiment in a line: SPR (Biacore). The procedure, abridged: (§1)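 Antibodies or DVD-Ig captured on anti-mouse IgG (Fcγ) CM5 surface; antigen injected at 10–200 nM in HBS-EP, pH 7.4, 25 °C, 25 µL/min. kon and koff from global 1:1 Langmuir fit; KD = koff/kon.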
(In general: Surface plasmon resonance follows binding to a sensor surface in real time, without labels.)

In assay [2] the target is T2, Recombinant Human IL-17 (human, UniProt Q16552 20-155, limits assumed).
T2 construct: bought reagent; also called IL-17A
T2 sequence (looked up): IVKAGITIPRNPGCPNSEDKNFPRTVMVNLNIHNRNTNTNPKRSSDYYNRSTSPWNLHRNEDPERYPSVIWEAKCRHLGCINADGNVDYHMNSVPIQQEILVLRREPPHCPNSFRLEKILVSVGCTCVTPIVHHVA
The experiment in a line: SPR (Biacore). The procedure, abridged:
as §1

For assay [3], the target named is T1, Recombinant Human IL-13. The experiment in a line: cell-based or functional assay.
Assay [4] addresses T2, Recombinant Human IL-17. Nature of the assay: cell-based or functional assay.

T1 sequence (P35225 35-146 limits assumed): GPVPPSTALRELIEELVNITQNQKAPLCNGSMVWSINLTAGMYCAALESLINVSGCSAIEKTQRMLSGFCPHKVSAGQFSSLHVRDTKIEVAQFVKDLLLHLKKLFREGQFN

B1: DVD2173 (bispecific antibody)
VH: EVQLVQSGAEVKKPGSSVKVSCKASGGSFGGYGIGWVRQAPGQGLEWMGGITPFFGFADYAQKFQGRVTITADESTTTAYMELSGLTSDDTAVYYCARDPNEFWNGYYSTHDFDSWGQGTTVTVSSASTKGPEVQLVQSGAEVKKPGASVKVSCKASGYTFTTYGVSWVRQAPGQGLEWMGEIYPGNYNTYYNEKFRGRVTMTTDTSTSTAYMELRSLRSDDTAVYYCARWRTSYFSDYGYFDYWGQGTTVTVSS
VL: EIVLTQSPDFQSVTPKEKVTITCRASQDIGSELHWYQQKPDQPPKLLIKYASHSTSGVPSRFSGSGSGTDFTLTINGLEAEDAGTYYCHQTDSLPYTFGPGTKVDIKRTVAAPDVVMTQSPLSLPVTLGQPASISCRSSQSLVHSHGNTYLHWYQQRPGQSPRLLIYTVSNRFSGVPDRFSGSGSGTDFTLKISRVEAEDVGVYYCSQSTHVPYTFGGGTKVEIKR
notes: DVD-Ig; also called DVD2173H; DVD2173L
In general, Kd refers to the concentration at which binding is half-saturated. For orientation: koff means the rate constant with which the complex falls apart. As a reminder, the kon is a measure of how fast the partners come together. Take B1: in the assay with Recombinant Human IL-13 [1], the equilibrium dissociation constant (Kd) came out at 0.12 nM, the koff was found to be 3.7e-05 s⁻¹ and the kon amounted to 310000 M⁻¹ s⁻¹. Also, in the assay with Recombinant Human IL-17 [2], the dissociation constant Kd was determined as 0.0036 nM, the koff turned out to be 9e-06 s⁻¹ and the kon amounted to 2.5e+06 M⁻¹ s⁻¹. For the same molecule, the “C-Terminal VD IL13 Neutralization Assay IC50” value with Recombinant Human IL-13 [3] turned out to be 2.14 nM. Besides, the “N-Terminal VD IL17 Neutralization Assay IC50” value in the assay with Recombinant Human IL-17 [4] turned out to be 0.008 nM.

B2: DVD2165 (bispecific antibody)
VH: EVQLVQSGAEVKKPGESVKISCKASGGSFRSYGISWVRQAPGQGLEWMGGITHFFGITDYAQKFQGRVTITADESTTTAYMELSGLTSDDTAVYYCAREPNDFWNGYYDTHDFDSWGQGTTVTVSSASTKGPSVFPLAPEVTLRESGPGLVKPTQTLTLTCTLYGFSLSTSDMGVDWIRQPPGKGLEWLAHIWWDDVKRYNPALKSRLTISKDTSKNQVVLKLTSVDPVDTATYYCARTVSSGYIYYAMDYWGQGTLVTVSS
VL: EIVLTQSPDFQSVTPKEKVTITCRASQNIGSELHWYQQKPDQSPKLLIKYASHSISGVPSRFSGSGSGTDFTLTINGLEAEDAATYYCHQSDTLPHTFGQGTKVDIKRTVAAPDIQMTQSPSSLSASVGDRVTISCRASQDIRNYLNWYQQKPGKAPKLLIFYTSKLHSGVPSRFSGSGSGTDYTLTISSLQPEDIATYYCQQGLTPPLTFGGGTKVEIKR
notes: DVD-Ig; also called DVD2165H; DVD2165L
In the case of B2, in the assay with Recombinant Human IL-13 [1], the Kd came out at 0.22 nM, the off-rate constant (koff) was 5.7e-05 s⁻¹ and the on-rate (kon) was 260000 M⁻¹ s⁻¹. For the same molecule, in the assay with Recombinant Human IL-17 [2], the dissociation constant (Kd) worked out at 0.014 nM, the koff was 3.2e-05 s⁻¹ and the kon is 2.3e+06 M⁻¹ s⁻¹. Moreover, the “C-Terminal VD IL13 Neutralization Assay IC50” value with Recombinant Human IL-13 [3] was found to be 0.355 nM. Further, the “N-Terminal VD IL17 Neutralization Assay IC50” value in the assay with Recombinant Human IL-17 [4] amounted to 0.0133 nM.

B3: DVD2167 (bispecific antibody)
VH: EVQLVQSGAEVKKPGSSVKVSCKASGYTFTDYEIHWVRQAPGQGLEWMGVNDPESGGTFYNQKFDGRVTLTADESTSTAYMELSSLRSEDTAVYYCTRYSKWDSFDGMDYWGQGTTVTVSSASTKGPEVQLVQSGAEVKKPGASVKVSCKASGYTFTTYGVSWVRQAPGQGLEWMGEIYPGNYNTYYNEKFRGRVTMTTDTSTSTAYMELRSLRSDDTAVYYCARWRTSYFSDYGYFDYWGQGTTVTVSS
VL: DIQMTQSPSSLSASVGDRVTITCRASSGIISYIDWFQQKPGKAPKRLIYATFDLASGVPSRFSGSGSGTDYTLTISSLQPEDFATYYCRQVGSYPETFGQGTKLEIKRTVAAPDVVMTQSPLSLPVTLGQPASISCRSSQSLVHSHGNTYLHWYQQRPGQSPRLLIYTVSNRFSGVPDRFSGSGSGTDFTLKISRVEAEDVGVYYCSQSTHVPYTFGGGTKVEIKR
notes: DVD-Ig; also called DVD2167H; DVD2167L
With B3, in the assay with Recombinant Human IL-13 [1], the dissociation constant (Kd) was less than 0.048 nM, the off-rate (koff) was less than 1e-06 s⁻¹ and the kon turned out to be 21000 M⁻¹ s⁻¹. Besides, in the assay with Recombinant Human IL-17 [2], the dissociation constant Kd was less than 0.00037 nM, the off-rate constant (koff) is less than 1e-06 s⁻¹ and the kon turned out to be 2.7e+06 M⁻¹ s⁻¹. Moreover, the “C-Terminal VD IL13 Neutralization Assay IC50” value with Recombinant Human IL-13 [3] stood at 1.7 nM. The “N-Terminal VD IL17 Neutralization Assay IC50” value with Recombinant Human IL-17 [4] was 0.0029 nM.

B4: DVD2171 (bispecific antibody)
VH: EVQLVQSGAEVKKPGSSVKVSCKASGYTFTDYEIHWVRQAPGQGLEWMGVNDPESGGTFYNQKFDGRVTLTADESTSTAYMELSSLRSEDTAVYYCTRYSKWDSFDGMDYWGQGTTVTVSSASTKGPSVFPLAPEVQLVQSGAEVKKPGASVKVSCKASGYTFTTYGVSWVRQAPGQGLEWMGEIYPGNYNTYYNEKFRGRVTMTTDTSTSTAYMELRSLRSDDTAVYYCARWRTSYFSDYGYFDYWGQGTTVTVSS
VL: B3 VL
notes: DVD-Ig; also called DVD2171H; DVD2171L
Take B4: in the assay with Recombinant Human IL-13 [1], the dissociation constant (Kd) is less than 0.005 nM, the off-rate constant (koff) was less than 1e-06 s⁻¹ and the association rate constant (kon) stood at 200000 M⁻¹ s⁻¹. Besides, in the assay with Recombinant Human IL-17 [2], the Kd was found to be 0.011 nM, the koff turned out to be 2.1e-05 s⁻¹ and the kon stood at 1.9e+06 M⁻¹ s⁻¹. Further, in the assay with Recombinant Human IL-13 [3], the “C-Terminal VD IL13 Neutralization Assay IC50” value is 0.506 nM. Moreover, the “N-Terminal VD IL17 Neutralization Assay IC50” value with Recombinant Human IL-17 [4] worked out at 0.0011 nM.

B5: DVD2164 (bispecific antibody)
VH: EVTLRESGPGLVKPTQTLTLTCTLYGFSLSTSDMGVDWIRQPPGKGLEWLAHIWWDDVKRYNPALKSRLTISKDTSKNQVVLKLTSVDPVDTATYYCARTVSSGYIYYAMDYWGQGTLVTVSSASTKGPSVFPLAPEVQLVQSGAEVKKPGESVKISCKASGGSFRSYGISWVRQAPGQGLEWMGGITHFFGITDYAQKFQGRVTITADESTTTAYMELSGLTSDDTAVYYCAREPNDFWNGYYDTHDFDSWGQGTTVTVSS
VL: DIQMTQSPSSLSASVGDRVTISCRASQDIRNYLNWYQQKPGKAPKLLIFYTSKLHSGVPSRFSGSGSGTDYTLTISSLQPEDIATYYCQQGLTPPLTFGGGTKVEIKRTVAAPEIVLTQSPDFQSVTPKEKVTITCRASQNIGSELHWYQQKPDQSPKLLIKYASHSISGVPSRFSGSGSGTDFTLTINGLEAEDAATYYCHQSDTLPHTFGQGTKVDIKR
notes: DVD-Ig; also called DVD2164H; DVD2164L
For the molecule B5, in the assay with Recombinant Human IL-13 [1], the dissociation constant Kd worked out at 0.11 nM, the koff was 0.00017 s⁻¹ and the kon worked out at 1.5e+06 M⁻¹ s⁻¹. In addition, in the assay with Recombinant Human IL-17 [2], the dissociation constant (Kd) was 1.7 nM, the koff was found to be 3.1e-05 s⁻¹ and the on-rate (kon) was determined as 18000 M⁻¹ s⁻¹. For the same molecule, the “N-Terminal VD IL13 Neutralization Assay IC50” value with Recombinant Human IL-13 [3] came to 0.146 nM. In addition, the “C-Terminal VD IL17 Neutralization Assay IC50” value with Recombinant Human IL-17 [4] was 0.135 nM.

B6: DVD2172 (bispecific antibody)
VH: EVQLVQSGAEVKKPGASVKVSCKASGYTFTTYGVSWVRQAPGQGLEWMGEIYPGNYNTYYNEKFRGRVTMTTDTSTSTAYMELRSLRSDDTAVYYCARWRTSYFSDYGYFDYWGQGTTVTVSSASTKGPEVQLVQSGAEVKKPGSSVKVSCKASGGSFGGYGIGWVRQAPGQGLEWMGGITPFFGFADYAQKFQGRVTITADESTTTAYMELSGLTSDDTAVYYCARDPNEFWNGYYSTHDFDSWGQGTTVTVSS
VL: DVVMTQSPLSLPVTLGQPASISCRSSQSLVHSHGNTYLHWYQQRPGQSPRLLIYTVSNRFSGVPDRFSGSGSGTDFTLKISRVEAEDVGVYYCSQSTHVPYTFGGGTKVEIKRTVAAPEIVLTQSPDFQSVTPKEKVTITCRASQDIGSELHWYQQKPDQPPKLLIKYASHSTSGVPSRFSGSGSGTDFTLTINGLEAEDAGTYYCHQTDSLPYTFGPGTKVDIKR
notes: DVD-Ig; also called DVD2172H; DVD2172L
In the case of B6, in the assay with Recombinant Human IL-13 [1], the equilibrium dissociation constant (Kd) was 0.033 nM, the off-rate (koff) was found to be 2.9e-05 s⁻¹ and the kon came out at 890000 M⁻¹ s⁻¹. In addition, in the assay with Recombinant Human IL-17 [2], the Kd was 26 nM, the dissociation rate constant (koff) was 0.00017 s⁻¹ and the kon was found to be 6800 M⁻¹ s⁻¹. Also, the “N-Terminal VD IL13 Neutralization Assay IC50” value with Recombinant Human IL-13 [3] came to 0.111 nM. Besides, the “C-Terminal VD IL17 Neutralization Assay IC50” value in the assay with Recombinant Human IL-17 [4] turned out to be 0.678 nM.

B7: DVD2166 (bispecific antibody)
VH: EVQLVQSGAEVKKPGASVKVSCKASGYTFTTYGVSWVRQAPGQGLEWMGEIYPGNYNTYYNEKFRGRVTMTTDTSTSTAYMELRSLRSDDTAVYYCARWRTSYFSDYGYFDYWGQGTTVTVSSASTKGPEVQLVQSGAEVKKPGSSVKVSCKASGYTFTDYEIHWVRQAPGQGLEWMGVNDPESGGTFYNQKFDGRVTLTADESTSTAYMELSSLRSEDTAVYYCTRYSKWDSFDGMDYWGQGTTVTVSS
VL: DVVMTQSPLSLPVTLGQPASISCRSSQSLVHSHGNTYLHWYQQRPGQSPRLLIYTVSNRFSGVPDRFSGSGSGTDFTLKISRVEAEDVGVYYCSQSTHVPYTFGGGTKVEIKRTVAAPDIQMTQSPSSLSASVGDRVTITCRASSGIISYIDWFQQKPGKAPKRLIYATFDLASGVPSRFSGSGSGTDYTLTISSLQPEDFATYYCRQVGSYPETFGQGTKLEIKR
notes: DVD-Ig; also called DVD2166H; DVD2166L
B7: in the assay with Recombinant Human IL-13 [1], the Kd was found to be 0.034 nM, the koff came out at 2.6e-05 s⁻¹ and the kon was 760000 M⁻¹ s⁻¹. In the assay with Recombinant Human IL-17 [2], the dissociation constant (Kd) was found to be 0.075 nM, the koff was found to be 9.4e-06 s⁻¹ and the kon came to 130000 M⁻¹ s⁻¹. In addition, the “N-Terminal VD IL13 Neutralization Assay IC50” value with Recombinant Human IL-13 [3] was determined as 0.089 nM. For the same molecule, the “C-Terminal VD IL17 Neutralization Assay IC50” value with Recombinant Human IL-17 [4] turned out to be 0.0164 nM.

B8: DVD2168 (bispecific antibody)
VH: B7 VH
VL: DVVMTQSPLSLPVTLGQPASISCRSSQSLVHSHGNTYLHWYQQRPGQSPRLLIYTVSNRFSGVPDRFSGSGSGTDFTLKISRVEAEDVGVYYCSQSTHVPYTFGGGTKVEIKRTVAAPSVFIFPPDIQMTQSPSSLSASVGDRVTITCRASSGIISYIDWFQQKPGKAPKRLIYATFDLASGVPSRFSGSGSGTDYTLTISSLQPEDFATYYCRQVGSYPETFGQGTKLEIKR
notes: DVD-Ig; also called DVD2168H; DVD2168L
B8: in the assay with Recombinant Human IL-13 [1], the Kd amounted to 0.054 nM, the koff was determined as 3.7e-05 s⁻¹ and the on-rate (kon) is 680000 M⁻¹ s⁻¹. For the same molecule, in the assay with Recombinant Human IL-17 [2], the Kd was less than 0.0025 nM, the koff was less than 1e-06 s⁻¹ and the kon was determined as 400000 M⁻¹ s⁻¹. Besides, the “N-Terminal VD IL13 Neutralization Assay IC50” value in the assay with Recombinant Human IL-13 [3] came out at 0.119 nM. Also, the “C-Terminal VD IL17 Neutralization Assay IC50” value with Recombinant Human IL-17 [4] was 0.0025 nM.
